The results in this text go back to patent WO2015087187A1 (dated 2015).

T1: recombinant human SOST (rhSOST) (human, UniProt Q9BQB4 24-213)
T1 construct: Treated as one molecule; also called recombinant human SOST protein; human sclerostin
T1 sequence: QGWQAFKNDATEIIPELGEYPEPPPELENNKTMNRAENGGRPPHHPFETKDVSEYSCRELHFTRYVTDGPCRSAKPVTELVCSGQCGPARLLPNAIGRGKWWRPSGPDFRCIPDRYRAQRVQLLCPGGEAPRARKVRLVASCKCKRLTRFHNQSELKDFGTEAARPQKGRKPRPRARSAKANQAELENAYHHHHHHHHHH

B1: DM1 (antibody, V domains shown)
VH: EVQLLESGGGLVQPGGSLRLSCAASGHTFSDYWMQWVRQAPGKGLEWVGAIYPGDGDTRYNQKFKDRFTISRDNSKNTLYLQMNSLRAEDTAVYYCARSMDYWGQGTLVTVSS
VL: DIVMTQSPDSLAVSLGERATINCRASKTVDSYGNSFMHWFQQKPGQPPKLLIHHSSNLESGVPDRFSGSGSGTDFTLTISSLQAEDVAVYYCLQTIEHPYTFGQGTKLEIK
notes: also called mH10/mL4
B2: DM2 (antibody, V domains shown)
VH: EVQLLESGGGLVQPGGSLRLSCAASGHTFSDYWMQWVRQAPGKGLEWVGAIYPGDGDTRYNQKFKDRFTISRDNSKNTLYLQMNSLRAEDTAVYYCARSMDYWGQGTLVTVSS
VL: DIVMTQSPDSLAVSLGERATINCRASKTVDSYGNSFMHWFQQKPGQPPKLLIYHSSNLESGVPDRFSGSGSGTDFTLTISSLQAEDVAVYYCLQTIEHPYTFGQGTKLEIK
notes: also called mH10/mL14
B3: DM17 (antibody, V domains shown)
VH: EVQLLESGGGLVQPGGSLRLSCAASGHTFTDYWMQWVRQAPGKGLEWIGAIYPGDGDTRYNQKFKDRFTISRDNSKNTLYLQMNSLRAEDTAVYYCARSMDYWGQGTLVTVSS
VL: DIVMTQSPDSLAVSLGERATINCRASKTVDSYGNSFMHWFQQKPGQPPKLLIHHSSNLESGVPDRFSGSGSGTDFTLTISSLQAEDVAVYYCLQTIEDSYTFGQGTKLEIK
notes: also called wt/mL6
B4: DM9 (antibody, V domains shown)
VH: EVQLLESGGGLVQPGGSLRLSCAASGHTFSDYWMQWVRQAPGKGLEWVGAIYPGDGDTRYNQKFKDRFTISRDNSKNTLYLQMNSLRAEDTAVYYCARSMDYWGQGTLVTVSS
VL: DIVMTQSPDSLAVSLGERATINCRASKTVDSYGSNFMHWYQQKPGQPPKLLIYHSSNLESGVPDRFSGSGSGTDFTLTISSLQAEDVAVYYCLQTIEHPYTFGQGTKLEIK
notes: also called mH10/mL18
B5: DM18 (antibody, V domains shown)
VH: EVQLLESGGGLVQPGGSLRLSCAASGHTFTDYWMQWVRQAPGKGLEWIGAIYPGDGDTRYNQKFKDRFTISRDNSKNTLYLQMNSLRAEDTAVYYCARSMDYWGQGTLVTVSS
VL: DIVMTQSPDSLAVSLGERATINCRASKTVDSYGNSFMHWFQQKPGQPPKLLIHHSSNLESGVPDRFSGSGSGTDFTLTISSLQAEDVAVYYCLQTIDEPYTFGQGTKLEIK
notes: also called wt/mL8
B6: DM6 (antibody, V domains shown)
VH: EVQLLESGGGLVQPGGSLRLSCAASGHTFSDYWMQWVRQAPGKGLEWVGAIYPGDGDTRYNQKFKDRFTISRDNSKNTLYLQMNSLRAEDTAVYYCARSMDYWGQGTLVTVSS
VL: DIVMTQSPDSLAVSLGERATINCRASKTVDSYGNSFMHWYQQKPGQPPKLLIYHSSNLESGVPDRFSGSGSGTDFTLTISSLQAEDVAVYYCLQTIEFPYTFGQGTKLEIK
notes: also called mH10/mL17
B7: DM7 (antibody, V domains shown)
VH: EVQLLESGGGLVQPGGSLRLSCAASGFTFSDYWMQWVRQAPGKGLEWVGAIYPGDGDTRYNQKFKDRFTISRDNSKNTLYLQMNSLRAEDTAVYYCARSMDYWGQGTLVTVSS
VL: DIVMTQSPDSLAVSLGERATINCRASKTVDSYGNSFMHWFQQKPGQPPKLLIYHSSNLESGVPDRFSGSGSGTDFTLTISSLQAEDVAVYYCLQTIEHPYTFGQGTKLEIK
notes: also called mH11/mL14
B8: DM20 (antibody, V domains shown)
VH: EVQLLESGGGLVQPGGSLRLSCAASGHTFSDYWMQWVRQAPGKGLEWIGAIYPGDGDTRYNQKFKDRFTISRDNSKNTLYLQMNSLRAEDTAVYYCARSMDYWGQGTLVTVSS
VL: DIVMTQSPDSLAVSLGERATINCRASKTVDSYGNSFMHWFQQKPGQPPKLLIHHSSNLESGVPDRFSGSGSGTDFTLTISSLQAEDVAVYYCLQTIEDPYTFGQGTKLEIK
notes: also called mH1/wt
B9: DM11 (antibody, V domains shown)
VH: EVQLLESGGGLVQPGGSLRLSCAASGHTFTDYWMQWVRQAPGKGLEWIGAIYPGDGDTRYNQKFKDRFTISRDNSKNTLYLQMNSLRAEDTAVYYCARSMDYWGQGTLVTVSS
VL: DIVMTQSPDSLAVSLGERATINCRASKTVDSYGNSFMHWFQQKPGQPPKLLIHHSSNLESGVPDRFSGSGSGTDFTLTISSLQAEDVAVYYCLQTIEDPYTFGQGTKLEIK
notes: also called wt/wt
B10: DM8 (antibody, V domains shown)
VH: EVQLLESGGGLVQPGGSLRLSCAASGFTFSDYWMQWVRQAPGKGLEWVGAIYPGDGDTRYNQKFKDRFTISRDNSKNTLYLQMNSLRAEDTAVYYCARSMDYWGQGTLVTVSS
VL: DIVMTQSPDSLAVSLGERATINCRASKTVDSYGNSFMHWYQQKPGQPPKLLIYHSSNLESGVPDRFSGSGSGTDFTLTISSLQAEDVAVYYCLQTIEFPYTFGQGTKLEIK
notes: also called mH11/mL17
B11: DM5 (antibody, V domains shown)
VH: EVQLLESGGGLVQPGGSLRLSCAASGHTFSDYWMQWVRQAPGKGLEWVGAIYPGDGDTRYNQKFKDRFTISRDNSKNTLYLQMNSLRAEDTAVYYCARSMDYWGQGTLVTVSS
VL: DIVMTQSPDSLAVSLGERATINCRASKTVDSYGNSFMHWFQQKPGQPPKLLIYHSSNLESGVPDRFSGSGSGTDFTLTISSLQAEDVAVYYCLQTIEFPYTFGQGTKLEIK
notes: also called mH10/mL16
B12: DM3 (antibody, V domains shown)
VH: EVQLLESGGGLVQPGGSLRLSCAASGHTFSDYWMQWVRQAPGKGLEWVGAIYPGDGDTRYNQKFKDRFTISRDNSKNTLYLQMNSLRAEDTAVYYCARSMDYWGQGTLVTVSS
VL: DIVMTQSPDSLAVSLGERATINCRASKTVDSYGNSFMHWYQQKPGQPPKLLIYHSSNLESGVPDRFSGSGSGTDFTLTISSLQAEDVAVYYCLQTIEHPYTFGQGTKLEIK
notes: also called mH10/mL15
B13: DM13 (antibody, V domains shown)
VH: EVQLLESGGGLVQPGGSLRLSCAASGHTFTDYWMQWVRQAPGKGLEWIGAIYPGDGDTRYNQKFKDRFTISRDNSKNTLYLQMNSLRAEDTAVYYCARSMDYWGQGTLVTVSS
VL: DIVMTQSPDSLAVSLGERATINCRASKTVDSYGNSFMHWFQQKPGQPPKLLIYHSSNLESGVPDRFSGSGSGTDFTLTISSLQAEDVAVYYCLQTIEDPYTFGQGTKLEIK
notes: also called wt/mL2
B14: DM14 (antibody, V domains shown)
VH: EVQLLESGGGLVQPGGSLRLSCAASGHTFTDYWMQWVRQAPGKGLEWIGAIYPGDGDTRYNQKFKDRFTISRDNSKNTLYLQMNSLRAEDTAVYYCARSMDYWGQGTLVTVSS
VL: DIVMTQSPDSLAVSLGERATINCRASKTVDSYGNSFMHWYQQKPGQPPKLLIYHSSNLESGVPDRFSGSGSGTDFTLTISSLQAEDVAVYYCLQTIEDPYTFGQGTKLEIK
notes: also called wt/mL3
B15: DM12 (antibody, V domains shown)
VH: EVQLLESGGGLVQPGGSLRLSCAASGHTFTDYWMQWVRQAPGKGLEWIGAIYPGDGDTRYNQKFKDRFTISRDNSKNTLYLQMNSLRAEDTAVYYCARSMDYWGQGTLVTVSS
VL: DIVMTQSPDSLAVSLGERATINCRASKTVDSYGNSFMHWYQQKPGQPPKLLIHHSSNLESGVPDRFSGSGSGTDFTLTISSLQAEDVAVYYCLQTIEDPYTFGQGTKLEIK
notes: also called wt/mL1
B16: DM15 (antibody, V domains shown)
VH: EVQLLESGGGLVQPGGSLRLSCAASGHTFTDYWMQWVRQAPGKGLEWIGAIYPGDGDTRYNQKFKDRFTISRDNSKNTLYLQMNSLRAEDTAVYYCARSMDYWGQGTLVTVSS
VL: DIVMTQSPDSLAVSLGERATINCRASKTVDSYGNSFMHWFQQKPGQPPKLLIHHSSNLESGVPDRFSGSGSGTDFTLTISSLQAEDVAVYYCLQTIEHPYTFGQGTKLEIK
notes: also called wt/mL4
B17: DM16 (antibody, V domains shown)
VH: EVQLLESGGGLVQPGGSLRLSCAASGHTFTDYWMQWVRQAPGKGLEWIGAIYPGDGDTRYNQKFKDRFTISRDNSKNTLYLQMNSLRAEDTAVYYCARSMDYWGQGTLVTVSS
VL: DIVMTQSPDSLAVSLGERATINCRASKTVDSYGNSFMHWFQQKPGQPPKLLIHHSSNLESGVPDRFSGSGSGTDFTLTISSLQAEDVAVYYCLQTIEDHYTFGQGTKLEIK
notes: also called wt/mL5
B18: DM19 (antibody, V domains shown)
VH: EVQLLESGGGLVQPGGSLRLSCAASGHTFTDYWMQWVRQAPGKGLEWIGAIYPGDGDTRYNQKFKDRFTISRDNSKNTLYLQMNSLRAEDTAVYYCARSMDYWGQGTLVTVSS
VL: DIVMTQSPDSLAVSLGERATINCRASKTVDSYGNSFMHWFQQKPGQPPKLLIHHSSNLESGVPDRFSGSGSGTDFTLTISSLQAEDVAVYYCLQTIEFHYTFGQGTKLEIK
notes: also called wt/mL10

This assay deals with T1, recombinant human SOST (rhSOST). Description: SPR Biacore T200, IgG captured via anti-human Fc, rhSOST analyte, 37 C. (In general: In SPR one partner is held on a chip, and binding of the other changes the refractive index at the surface.)
Take B1: the dissociation constant Kd turned out to be 0.566 nM, the koff was 0.000741 s⁻¹ and the on-rate (kon) is 1.31e+06 M⁻¹ s⁻¹.
B2: the dissociation constant Kd was 0.321 nM, the koff was determined as 0.000797 s⁻¹ and the kon came out at 2.48e+06 M⁻¹ s⁻¹.
Consider B3, for which the equilibrium dissociation constant (Kd) turned out to be 0.044 nM, the koff was 0.000207 s⁻¹ and the kon was 4.7e+06 M⁻¹ s⁻¹.
Consider B4, for which the Kd turned out to be 2.32 nM, the koff is 0.00434 s⁻¹ and the association rate constant (kon) worked out at 1.87e+06 M⁻¹ s⁻¹.
For B5, the Kd was 0.179 nM, the koff turned out to be 0.00104 s⁻¹ and the kon was determined as 5.81e+06 M⁻¹ s⁻¹.
In the case of B6, the Kd turned out to be 1.18 nM, the koff is 0.00251 s⁻¹ and the association rate constant (kon) turned out to be 2.12e+06 M⁻¹ s⁻¹.
Take B7: the Kd is 0.966 nM, the koff worked out at 0.00402 s⁻¹ and the kon turned out to be 4.16e+06 M⁻¹ s⁻¹.
The corresponding values for B8 are 0.015 nM, 0.00012 s⁻¹ and 7.83e+06 M⁻¹ s⁻¹.
The corresponding values for B9 are below 0.0016 nM, below 2.8e-05 s⁻¹ and 1.7e+07 M⁻¹ s⁻¹.
The corresponding values for B10 are 2.93 nM, 0.007 s⁻¹ and 2.39e+06 M⁻¹ s⁻¹.
As to B11, the Kd was 0.193 nM, the koff stood at 0.000754 s⁻¹ and the kon came out at 3.91e+06 M⁻¹ s⁻¹.
The corresponding values for B12 are 1.84 nM, 0.00285 s⁻¹ and 1.55e+06 M⁻¹ s⁻¹.
B13: the Kd was below 0.0016 nM, the koff is below 2.8e-05 s⁻¹ and the kon was 1.72e+07 M⁻¹ s⁻¹.
Take B14: the Kd was determined as 0.016 nM, the koff was determined as 8.31e-05 s⁻¹ and the kon is 5.22e+06 M⁻¹ s⁻¹.
As for B15, the Kd came out at 0.009 nM, the off-rate (koff) amounted to 5.62e-05 s⁻¹ and the kon stood at 6.55e+06 M⁻¹ s⁻¹.
As for B16, the Kd is 0.08 nM, the off-rate (koff) amounted to 0.000297 s⁻¹ and the association rate constant (kon) turned out to be 3.72e+06 M⁻¹ s⁻¹.
Regarding B17, the Kd was found to be 0.207 nM, the koff was found to be 0.000817 s⁻¹ and the on-rate constant (kon) was 3.94e+06 M⁻¹ s⁻¹.
Regarding B18, the Kd worked out at 0.096 nM, the off-rate (koff) turned out to be 0.000388 s⁻¹ and the kon was determined as 4.06e+06 M⁻¹ s⁻¹.

A word on the Kd: it is the constant that tells how readily two partners part at equilibrium. As usually defined, the koff is the first-order rate constant of dissociation. In general, kon refers to the second-order rate constant of association.
